Assay results from PMC5192385.

Molecular target: depolymerase enzyme encoded by Klebsiella phage KP36 (depoKP36) (Klebsiella phage KP36)
Assay: SEC-MALS; 2 mg of purified, non-aggregated protein on an S200 10/30 column in 200 mM NaCl, 25 mM HEPES, 5% glycerol, pH 7.8; flow 0.5 mL/min

depolymerase enzyme encoded by Klebsiella phage KP36 (depoKP36), sequence (K9L8K6 whole entry): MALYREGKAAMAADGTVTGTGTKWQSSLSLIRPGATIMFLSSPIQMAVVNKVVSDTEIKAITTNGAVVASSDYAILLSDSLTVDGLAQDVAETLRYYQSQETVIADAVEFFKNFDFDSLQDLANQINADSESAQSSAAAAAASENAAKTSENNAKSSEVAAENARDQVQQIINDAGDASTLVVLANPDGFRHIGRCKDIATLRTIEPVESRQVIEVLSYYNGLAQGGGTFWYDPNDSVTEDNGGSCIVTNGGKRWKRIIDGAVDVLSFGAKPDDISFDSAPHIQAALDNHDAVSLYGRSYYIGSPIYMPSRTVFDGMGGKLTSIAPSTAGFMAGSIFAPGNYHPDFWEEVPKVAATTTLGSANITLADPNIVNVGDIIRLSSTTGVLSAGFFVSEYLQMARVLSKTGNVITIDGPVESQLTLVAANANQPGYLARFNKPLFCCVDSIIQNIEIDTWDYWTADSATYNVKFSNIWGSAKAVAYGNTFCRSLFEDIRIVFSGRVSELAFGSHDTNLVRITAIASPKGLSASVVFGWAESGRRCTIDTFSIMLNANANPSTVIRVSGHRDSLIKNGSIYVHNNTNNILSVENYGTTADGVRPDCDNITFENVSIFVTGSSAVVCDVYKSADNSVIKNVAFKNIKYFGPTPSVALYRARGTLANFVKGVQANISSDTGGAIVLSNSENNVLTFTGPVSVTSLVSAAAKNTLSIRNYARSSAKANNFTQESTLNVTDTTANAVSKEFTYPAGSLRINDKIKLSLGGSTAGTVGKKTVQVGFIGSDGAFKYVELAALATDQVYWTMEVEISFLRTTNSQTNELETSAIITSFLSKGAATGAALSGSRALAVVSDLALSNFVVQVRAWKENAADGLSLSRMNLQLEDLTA

depolymerase enzyme encoded by Klebsiella phage KP36 (depoKP36)
stoichiometry N: 3
